Target: human fibrinogen (UniProt P02671)
Sequence (P02671 20-629, chain 1 of 3): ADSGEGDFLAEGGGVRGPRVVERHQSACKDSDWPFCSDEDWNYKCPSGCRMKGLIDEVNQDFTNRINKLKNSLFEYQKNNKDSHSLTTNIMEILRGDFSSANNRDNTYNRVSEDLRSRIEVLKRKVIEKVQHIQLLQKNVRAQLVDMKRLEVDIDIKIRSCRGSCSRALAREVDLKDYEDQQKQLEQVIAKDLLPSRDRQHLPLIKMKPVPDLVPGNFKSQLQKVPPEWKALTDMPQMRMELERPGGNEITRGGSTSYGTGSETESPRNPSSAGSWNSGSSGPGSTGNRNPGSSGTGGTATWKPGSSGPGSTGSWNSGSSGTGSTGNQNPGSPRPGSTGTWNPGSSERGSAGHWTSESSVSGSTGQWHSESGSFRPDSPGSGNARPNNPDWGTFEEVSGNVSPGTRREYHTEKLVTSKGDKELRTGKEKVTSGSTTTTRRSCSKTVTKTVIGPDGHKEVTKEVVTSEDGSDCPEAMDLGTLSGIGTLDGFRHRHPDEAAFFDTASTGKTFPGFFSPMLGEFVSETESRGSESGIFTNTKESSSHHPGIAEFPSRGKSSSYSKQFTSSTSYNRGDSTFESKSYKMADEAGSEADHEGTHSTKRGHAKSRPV
Sequence (chain, as listed by the source, chain 2 of 3): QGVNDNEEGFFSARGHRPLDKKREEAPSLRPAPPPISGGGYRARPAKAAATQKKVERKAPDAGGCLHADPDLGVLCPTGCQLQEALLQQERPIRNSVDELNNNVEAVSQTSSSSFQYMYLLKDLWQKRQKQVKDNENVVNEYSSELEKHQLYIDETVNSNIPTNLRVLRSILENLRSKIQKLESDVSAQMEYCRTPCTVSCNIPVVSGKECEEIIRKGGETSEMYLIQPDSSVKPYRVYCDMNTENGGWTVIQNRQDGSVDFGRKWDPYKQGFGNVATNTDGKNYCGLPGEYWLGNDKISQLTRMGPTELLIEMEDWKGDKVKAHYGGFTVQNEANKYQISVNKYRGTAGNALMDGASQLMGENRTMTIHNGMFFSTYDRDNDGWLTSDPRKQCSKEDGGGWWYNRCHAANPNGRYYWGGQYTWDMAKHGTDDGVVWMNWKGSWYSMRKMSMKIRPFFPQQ
Sequence (chain, as listed by the source, chain 3 of 3): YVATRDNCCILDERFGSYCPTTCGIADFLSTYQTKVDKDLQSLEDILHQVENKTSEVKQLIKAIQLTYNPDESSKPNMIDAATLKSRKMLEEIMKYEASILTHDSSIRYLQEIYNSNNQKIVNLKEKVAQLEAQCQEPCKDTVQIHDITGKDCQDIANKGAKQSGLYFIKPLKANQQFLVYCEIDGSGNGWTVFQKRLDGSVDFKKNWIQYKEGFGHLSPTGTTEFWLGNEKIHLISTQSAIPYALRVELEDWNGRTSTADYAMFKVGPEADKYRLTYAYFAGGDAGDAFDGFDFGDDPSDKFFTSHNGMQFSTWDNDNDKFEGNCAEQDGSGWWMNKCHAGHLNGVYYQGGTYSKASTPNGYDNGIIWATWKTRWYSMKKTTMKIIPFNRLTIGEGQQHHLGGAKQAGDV

recombinant human β-I tryptase (from pPIC9-HumTry, expressed in Pichia pastoris), sequence (chain, as listed by the source): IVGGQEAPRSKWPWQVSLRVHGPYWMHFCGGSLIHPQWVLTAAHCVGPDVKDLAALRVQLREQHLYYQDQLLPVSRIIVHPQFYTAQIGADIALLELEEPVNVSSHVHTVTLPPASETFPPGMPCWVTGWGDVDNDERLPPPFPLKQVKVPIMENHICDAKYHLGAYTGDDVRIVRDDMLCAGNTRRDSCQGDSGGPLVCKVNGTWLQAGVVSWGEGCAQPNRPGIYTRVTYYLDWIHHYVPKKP
recombinant human β-II tryptase (from pPIC9-HumTryN102K, expressed in Pichia pastoris), sequence (chain, as listed by the source): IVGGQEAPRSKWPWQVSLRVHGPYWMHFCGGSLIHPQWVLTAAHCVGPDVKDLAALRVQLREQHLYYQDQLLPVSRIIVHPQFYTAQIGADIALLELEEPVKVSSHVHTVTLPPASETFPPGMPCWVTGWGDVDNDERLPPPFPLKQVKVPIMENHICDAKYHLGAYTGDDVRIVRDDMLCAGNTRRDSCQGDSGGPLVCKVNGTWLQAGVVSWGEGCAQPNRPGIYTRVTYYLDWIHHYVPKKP

Substance	fibrinogen cleavage (SDS-PAGE of fibrinogen subunits after 60 min incubation)
β-tryptase isolated from a cadaver (native β)	Native β-tryptase was less efficient at fibrinogeneolysis
recombinant human β-I tryptase (from pPIC9-HumTry, expressed in Pichia pastoris)	The a and β subunits were efficiently hydrolyzed by the recombinant β-I and β-II tryptase enzymes even during cold incubation.
recombinant human β-II tryptase (from pPIC9-HumTryN102K, expressed in Pichia pastoris)	The a and β subunits were efficiently hydrolyzed by the recombinant β-I and β-II tryptase enzymes even during cold incubation.

— patent US6998260
